Data published in US20260218270A1.

Assays:
[1] = target: T1, N-NLuc-VWFA2-C fusion protein (SEQ ID NO: 17)
T1 chain: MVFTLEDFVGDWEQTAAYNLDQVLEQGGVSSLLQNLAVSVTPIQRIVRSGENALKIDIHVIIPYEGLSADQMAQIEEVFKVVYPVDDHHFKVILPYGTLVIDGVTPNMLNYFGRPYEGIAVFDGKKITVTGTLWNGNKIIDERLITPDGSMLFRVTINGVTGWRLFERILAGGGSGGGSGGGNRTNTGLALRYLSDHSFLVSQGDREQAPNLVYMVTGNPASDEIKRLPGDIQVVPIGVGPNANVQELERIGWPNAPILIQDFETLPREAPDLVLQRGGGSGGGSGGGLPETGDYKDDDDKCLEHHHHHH

[2] = target: T2, fusion protein of SEQ ID NO: 16 (Nanoluc luciferase at the C-terminus, VWF A2 domain aa1574-1668, Flag-tag, C-terminal His-tag)
T2 chain: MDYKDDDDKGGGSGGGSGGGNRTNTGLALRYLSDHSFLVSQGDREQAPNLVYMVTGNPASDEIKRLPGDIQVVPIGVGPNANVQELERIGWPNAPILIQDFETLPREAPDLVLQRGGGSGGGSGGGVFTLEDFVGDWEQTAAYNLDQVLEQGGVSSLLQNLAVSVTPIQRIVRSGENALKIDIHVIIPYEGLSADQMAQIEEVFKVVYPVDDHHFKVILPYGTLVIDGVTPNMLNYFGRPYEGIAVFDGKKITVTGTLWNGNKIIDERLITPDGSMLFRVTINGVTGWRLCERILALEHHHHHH

[3] = target: T3, fusion protein of SEQ ID NO: 15 (Nanoluc luciferase at the N-terminus, VWF A2 domain aa1574-1668, Flag-tag, C-terminal His-tag)
T3 chain: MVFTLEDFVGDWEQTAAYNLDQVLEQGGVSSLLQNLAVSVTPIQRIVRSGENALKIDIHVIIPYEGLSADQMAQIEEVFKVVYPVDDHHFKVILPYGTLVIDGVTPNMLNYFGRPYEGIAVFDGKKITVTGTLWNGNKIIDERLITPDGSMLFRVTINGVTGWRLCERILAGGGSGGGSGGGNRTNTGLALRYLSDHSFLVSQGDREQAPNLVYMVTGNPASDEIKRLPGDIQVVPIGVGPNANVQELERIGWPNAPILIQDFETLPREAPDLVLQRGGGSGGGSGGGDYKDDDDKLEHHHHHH

[4] = target: fusion protein of SEQ ID NO: 16 (Nanoluc luciferase at the C-terminus, VWF A2 domain aa1574-1668, Flag-tag, C-terminal His-tag); assay: cell-based or functional assay

B1: ADAMTS13 (protein)
chain: AAGGILHLELLVAVGPDVFQAHQEDTERYVLTNLNIGAELLRDPSLGAQFRVHLVKMVILTEPEGAPNITANLTSSLLSVCGWSQTINPEDDTDPGHADLVLYITRFDLELPDGNRQVRGVTQLGGACSPTWSCLITEDTGFDLGVTIAHEIGHSFGLEHDGAPGSGCGPSGHVMASDGAAPRAGLAWSPCSRRQLLSLLSAGRARCVWDPPRPQPGSAGHPPDAQPGLYYSANEQCRVAFGPKAVACTFAREHLDMCQALSCHTDPLDQSSCSRLLVPLLDGTECGVEKWCSKGRCRSLVELTPIAAVHGRWSSWGPRSPCSRSCGGGVVTRRRQCNNPRPAFGGRACVGADLQAEMCNTQACEKTQLEFMSQQCARTDGQPLRSSPGGASFYHWGAAVPHSQGDALCRHMCRAIGESFIMKRGDSFLDGTRCMPSGPREDGTLSLCVSGSCRTFGCDGRMDSQQVWDRCQVCGGDNSTCSPRKGSFTAGRAREYVTFLTVTPNLTSVYIANHRPLFTHLAVRIGGRYVVAGKMSISPNTTYPSLLEDGRVEYRVALTEDRLPRLEEIRIWGPLQEDADIQVYRRYGEEYGNLTRPDITFTYFQPKPRQAWVWAAVRGPCSVSCGAGLRWVNYSCLDQARKELVETVQCQGSQQPPAWPEACVLEPCPPYWAVGDFGPCSASCGGGLRERPVRCVEAQGSLLKTLPPARCRAGAQQPAVALETCNPQPCPARWEVSEPSSCTSAGGAGLALENETCVPGADGLEAPVTEGPGSVDEKLPAPEPCVGMSCPPGWGHLDATSAGEKAPSPWGSIRTGAQAAHVWTPAAGSCSVSCGRGLMELRFLCMDSALRVPVQEELCGLASKPGSRREVCQAVPCPARWQYKLAACSVSCGRGVVRRILYCARAHGEDDGEEILLDTQCQGLPRPEPQEACSLEPCPPRWKVMSLGPCSASCGLGTARRSVACVQLDQGQDVEVDEAACAALVRPEASVPCLIADCTYRWHVGTWMECSVSCGDGIQRRRDTCLGPQAQAPVPADFCQHLPKPVTVRGCWAGPCVGQGTPSLVPHEEAAAPGRTTATPAGASLEWSQARGLLFSPAPQPRRLLPGPQENSVQSSACGRQHLEPTGTIDMRGPGQADCAVAIGRPLGEVVTLRVLESSLNCSAGDMLLLWGRLTWRKMCRKLLDMTFSSKTNTLVVRQRCGRPGGGVLLRYGSQLAPETFYRECDMQLFGPWGEIVSPSLSPATSNAGGCRLFINVAPHARIAIHALATNMGAGTEGANASYILIRDTHSLRTTAFHGQQVLYWESESSQAEMEFSEGFLKAQASLRGQYWTLQSWVPEMQDPQSWKGKEGT
SDS-PAGE (4-15% gradient, Coomassie Blue), FIG. 10 [1]: shows the expected fragments of the fusion-protein (SEQ ID NO: 17) after cleavage by adding ADAMTS13
amount of fusion protein cleaved off and transferred to the new plate [2]: ~120 ng VWFA2-Nanoluc
luminescence (RLU) against NPP concentration, FIG. 1 [2]: This fusion protein is also cleaved by ADAMTS13 but here is not as much influence on light emission
luminescence (RLU) of fusion protein left on anti-VWF-A2 coated plate after incubation with 0-20% NPP [2]: did not demonstrate an effect of an increasing ADAMTS13 concentration
luminescence (RLU) transferred from anti-FLAG plate after A13 at 0-1 IU/mL [2]: a signal increase from ~1.5 towards ~1.7 M RLU for C-Flag
share of the initially offered quantity that was cleaved off and transferred [2]: ~12% of the initially offered quantity to the wells
luminescence (RLU) of fusion protein left on anti-VWF-A2 coated plate after incubation with 0-20% NPP [3]: shows a decreasing signal when the concentration NPP increases, suggesting that ADAMTS13 cleaves the fusion protein
luminescence (RLU) left on the Ni-NTA binding plate, A13 from lithium-heparin plasma, FIG. 8C [4]: 400000 RLU
